Source: doi:10.1101/102160

How the values were obtained:
[1] = target: CTD2, C-terminal domain of the OCP2 from Fremyella diplosiphon, with C-terminal HisTag (Fremyella diplosiphon UTEX481); assay: SEC
[2] = target: NTD1-CTD1 heterodimer (with canthaxanthin) (Fremyella diplosiphon UTEX481); assay: SEC

| stoichiometry N [1] | stoichiometry N [2] | Substance |
| --- | --- | --- |
| 2 |  | CTD2, C-terminal domain of the OCP2 from Fremyella diplosiphon, with C-terminal HisTag (domain or fragment) |
|  | 2 | NTD1-CTD1 heterodimer (with canthaxanthin) (complex) |
